Results: the DeepSol protein solubility set

Assay: soluble on expression in E. coli; label from the status in PepcDB or PDB records

Soluble on expression in E. coli, not soluble:
MGSDKIHHHHHHMSTAKTLTLEMHLGDLMIGELSFDATADTFAVHYTKDWQQSGFPLSPTIPLDGTGTSNQISMFLVNLLPENKGLDYLIESLGVSKGNTFALIRAIGLDTAGAIAFVPKGALLPETQLRPIKAEEVIQRIEDPTMWPMEIWDGKPRLSVAGVQPKLNLFYNGKEFAFAEGTLSSTHIVKFEKYHHLVINEFITMRLAKVLGMNVANVDIVHFGRYKALCVERFDRRNIPGEQRVLRRHIVDSCQALGFSVSKKYERNFGTGRDVKDIREGVSFNRLFSLAAKCRNPVAAKQDMLQWALFNLLTGNADAHGKNYSFFMTPSGMEPTPWYDLVSVDMYEDFEQQLAMAIDDEFDPNSIYAYQLAAFMDGLGLPRNLLISNLTRIARRIPQAIAEVILMLPPLDEDEASFVAHYKTQLLARCERYLGFVDEVRDVEV, MGSDKIHHHHHHMSTLENVHASPIHFMSKPAEIEHTQRPLNEASHAPGYIYGDPDVLRREKERIFMKDWLCIAHVDELPNPGDFVTHTVIDEPVLIVRNRSGVLQAFYNQCRHRGVEVAEGRGNAKIFKCPYHAWSYDLDGKLIGVPFMKEAQGFDQKNCSLKPVRLDTWGGFIHISFDPDAEPLSSYMAEYEQEFGMLRQGELRLGLRWETDFDCNWKFVYENLMDIYHVGVTHADTIGRYQDQSSYRYLQLPRGRASIHYRAKTMSETGSSLFGRLPWIDDDSFARIGYLPPNLTMLARCDYVRPVTHWPTAVNRTHSVAYFLFPEDKIADPQFQEKIQTYVKFVEQVLDEDRGMILSLQRAMNTRGFEPGRMSFMENAIHHALGYHLERLFGPQSA, MGSDKIHHHHHHMSTNPSLPWHAGELALQARVGVAAKMEDVGRRVMRDYMPDQHREFFAQMPFVVLGTVAPDGRVWATLRAGRPGFLQSPDARILELRLPREAADPADAGMEDGQPLGLLGIDLMTRRRNRMNGVLRRADRDGADLRIDVVQSFGNCPRYIQQRAFRFTRDPSEQTTIAPLAMGALDSRARALIASADAFFVASYADRPEAGRQVDVSHRGGEPGFVRIDADGGLTIPDFAGNLFFNTLGNFMVNPAAGVTFADFDTGELLQMSGRVEVIVDSPEIAAFQGAERLWRFFPEKIVRREAALPMRWARAGDAADE, MGSDKIHHHHHHMSTQTSIEWTEMTWNPIVGCTKVSPGCKHCYAENMAHRLQAMGTPGYENGFKLSLRPEKLREPLQRKKPTIYFVNSMSDLFHEKVPDHYIDQVFEVIREATQHTFQILTKRAERLADYFSKRTPPTNAWLGVSVEDKAYGVPRIDCLRRVNATIRFLSAEPLLEDLGEIDLTDIHWVIVGGESGNKARPMQQEWVDNIHRQCDVSGSAFFFKQWGGWGADGVKRSKKANGRLLNGQTWDEIPLLNLA, MGSDKIHHHHHHMSVMETTHRQYRQTLIFGLIRIVEELFPQEEIKIQYSILDGIYCELENSPLSPREVAQIEEKLHHWLESKPKIMSCAEEDGFFHTKVNHIFVKSLYPAMHPADTYYPFTLIFYHPGFILLFSNPEHPCELPNFVPPEKLAATFLESQRWVENLHLDKVGSINLNIRKGKTTELISLAEALHEKKISLIADRILEQRRNLRIILISGPSSSGKTTFAQRLSTQLQVNGIRPIALSLDNYFCDREHTPLDEYGQYDFEALEALDLPLLNQHVKALIHGEEIECPIFDFVAGRRQPEGIRMKLEPDEILVMEGIHALNPRLLPSLERSHLFKIYISALFQPNIDTHNRISTTDVRLIRRLVRDDKYRGINPEKTLNQWSSVRRGENNNIFPYQEEADVMFNSSLLYELNALKAYAEPLLISIPKDHPYYATASHLLRVLYHFEILDIAKVPFNSILREFIGGGIY, MGSDKIHHHHHHMSVTSTTSQNSLFDVIVIGSGIGGLVTATQLAAKGAKVLVLESYIIPGGSAGYFERQGYRFDVGASMIFGLGNRGTTNLLTRALQAVNSSVEAIADPVQIHYHLPSNLNLKVDRVYDKFLQNLAAYFPHETKGIRRFYDECWQVFKCLNRMDLLSLEEPRYLLRTFLQHPLACLGLLKYLPQNVGDIARRYIRDPELLKFIDIECYCWSVVPAAMTPMINAGMVFSDRHYGGVNYPKGGVGQIAQKLAEGLEKVGGEIRYQAKVAKIITEKYRAVGVQLTNGEIYRSKRIVSNATRWDTFEKLLPVDKMPSNEKDWQHSYKKSPSFLSLHMGVKESVLPQGTECHHIILEDWQNMTQAEGTLFVSIPTLLDPELAPEGCHIIHAFTPHWINDWQGFSVSDYEAKKEETAWRIIDRLEKIFPGLDAGLDYLEVGTPRTHRRFLGREDGTYGPIPRRKLRGLLSMPFNRTAIKGLYCVGDSTFPGQGLNAVAFSGFACAHRIAVDLGL, MGSDKIHHHHHHMSWKLSIIRLLNKSLVPNQQRALVVFTVLLLCACGKAKIPFSPITVSQTPVTTAQFTDDIDTVSTLEAKEEVHLAAQASGRIIELKIDQGDQVQPGQMLVVLDQAQIRAELADFKAQEQKNKLNWQRYEFLVPQGAASALDRDEYKAQYIASREKVKATEATLAYSNLRSPISGIVADVDVKVGDVIRSGDPFTKLIRNNRLFARVEVPATFSDRIKIGLPVFLNKTGSSDVMATGEINSVGPTVNRTTQGLLVKAAFENANGSLRNGQRLRTRVQLDTREELSVPFAAVTQTSGQSFVYRVGSFQELEDFSGNISLDKLRKLPPSTRFALQTPVTLGKLQKQRYAVTKGLKLGEQVITTNLLKLRHGMPISVKN, MGSDKIHHHHHHMTAPHTETDSTQQFLDSMPELKPGEKFQFACHPGVACFNACCSDLTMPLSPYDVLRLRQETGQDSEGFISTFARVETYPDTNFPILYMKMTDGPVRPCPFVSQAGCQVYPNRPAACRTYPLGRGTRVDAQGRLVEQYFIIAEQHCHGFAEEPVWTSEEWLQDQGLARYNYFGDRYTRLMGRAMETGLVLTQKQLTLCLLALYEADRFGAFISGVNLFARLNVSAQEQARILEDEEARLEFGFDWTELVLFGDNERLQVVNP, MGSDKIHHHHHHMTAQNGQDVWHEDILDDSAIAVLSYPIGEMQRDQLHSHGYHQIAMCEQPGATLLLGSQVVSIPWNGALLVPSGTDHALTSETRCVIRCIYFKAALPSTSIGSLFLNRLTKELIKEISTSYVTERSRRLMEACLYDQIGQLLWSSGSGMMPPSRSLRVICKHIFDTPEDDTPVATLAKDAGLSERSLRRLARDELGCTISQIRTRCRIYKATQLLQAGVPVKLIAADVGYQSNSAFFSAFREIMGMSPARFQAECAASRSLSHLRLK, MGSDKIHHHHHHMTEEKESLAGRQWLVDKVDNSIKEGQTAIPAIENGICQRCGSSCWVRLPSGFLYCRACVGLGRLDEGKLLVRQAAGSHYPARAGMTWTGQLQERQEGVSRFLLEKFAAKEDCLVEAVTGAGKTEMIFPLLAEAFSCGCRVAIATPRIDVVNELYPRLVAAFGEVEIGKYHGREEKEAANEQLVICTTHQLLKYYQAFDLLIIDEIDSFPYAGNPQLHFAAGNAVKKTGSQVFLTATPPEDLLKAARQGKLAIVRLNRRFHCYPLPVPRLDLYVKPFLTKGRLHPKLARRIKMAAKSGHPLLVFLPRIAQMPQYFAAVKRLLPDLRLATVYAQDPDRLEKVEKFRKGDLDLLLTTTILEGGVTLSMSG, MGSDKIHHHHHHMTEQVMNKHQLETGLSILGAPVPGQEIVLNEGALSLLEVLCDQFAAEVPKLLEMRRQKQELIDKGSLPDFLPETRAIRDGDWQIRGIPQDLQDRRVEITGPVDRKMIINALNANVKVFMADFEDSLAPSWIKVIQGQINLRDAVRGEIEYTAPETGKHYTLDDDPAVLIARVRGLHLKEKHVAFNGEAIPGALFDFCLYFYHNYRQLLEKGSGPYFYIPKLESHVEARWWAKVFAYVEERFCLTPGTIKCTCLIETLPAVFEMEEILYELRSNIVALNCGRWDYIFSYIKTLKKHSDRILPDRQAVTMDKPFLSAYSRLLIKTCHKRGALAMGGMAAFIPAKDQAQNEAVLVKVRGDKELEARNGHDGTWVAHPGLADTAMGIFNEYIGEDHVNQLHITRDVDAPILARDLLMPCEGERTESGMRLNIRIALQYIEAWIRGNGCVPIYGLMEDAATAEISRTSIWQWIQHEQKLSNGKLVTKALFKEMLVEELANVKLEVGPDRFTHGSFTQAAVLLEEITTADELVDFLTLPGYEILTQGDNA, MGSDKIHHHHHHMTESSDYESVQVFIGVDVGKDTHHAVAINRSGKRLFDKALPNDENKLRSLISDLKQHGQILLVVDQPATIGALPVAVARSEGVLVGYLPGLAMRRIADLHAGEAKTDARDAAIIAEAARTLPHALRTLKLADEQIAELSMLCGFDDDLAAQTTQASNRILGLLTQIHPAPERVLGPRLEHPAVLDLLQRYPSPEKLASLGEKKLAAQLCKLAPRLGKRLAADIAQALAEQTVVVPGTNAAAVVLPRLALQLITLRKQRDEVALEVEQRVLAHPLYPVLTSMPGVGVRTAARLLTEVACRAFASAAHLAAYAGLAPVTRRSGSSIRGEHPSRRGNKALKRALFLSAFTALRDPLSRAYYTRKMSQGKRHNQVLIALARRRCDVLFAMMRDGTFYTPQGS, MGSDKIHHHHHHMTGEKVHLTGAKETLLMTLYGKALESRLPHSLLGDHFADEAVRKIDYDFSRLKVDENLGIGLAIRAKTLDVRVEDFLARNPGAIVLHLGCGLDTRVFRVDPPPGVDWFDADYPQVIELRRKLYPPRDHYHLIASSVTEPGWLAEVPRNRPAMVVAEGLTPYLPADEGLRLVSRLVSHLAGGELMFDAYSRFGLTLLRLSPTIKATGAEVHWAIDDPHELELAVPKLRFVEDISAYMPEHAARMGWSAKLFVRLWKHIPALRKVGRLLRYRF, MGSDKIHHHHHHMTGRRIAIAIDSLAGGGAEKVMLTLASTLVELGHEPHLLVLQQDCHHEIPPGLQVHFCFGGDERNIDGFWRTRGSVQKLQQWITGLEERFGKFELFLSNLDKTNLLMTRTGVAPLYCVVHNSIEEELQRQRKLGPFAYLSMLRAKKSLNGQHLITVSKGIANEIAEVGRVQPASVQTIYNPFELEKIQHQASQTADALPKGDYIIHVGRFARQKRHDVLFAALKQMRNPLPLVLLCNNKKKAIKSARKFGVEDRVIIPGFQTNPYPWIKGARLLALSSDYEGLPTVLIESLAVGTPVVSTDCRHGPKEILTGALRRFLVPRRDPAALAMAMDEALTHYPDCDDAEILTQVGAAAVAGKYLKLLTA, MGSDKIHHHHHHMTHEEHHAAKTLGIGKAIAVLTSGGDAQGMNAAVRAVVRVGIFTGARVFFVHEGYQGLVDGGDHIKEATWESVSMMLQLGGTVIGSARCKDFREREGRLRAAYNLVKRGITNLCVIGGDGSLTGADTFRSEWSDLLSDLQKAGKITDEEATKSSYLNIVGLVGSIDNDFCGTDMTIGTDSALHRIMEIVDAITTTAQSHQRTFVLEVMGRHCGYLALVTSLSCGADWVFIPECPPDDDWEEHLCRRLSETRTRGSRLNIIIVAEGAIDKNGKPITSEDIKNLVVKRLGYDTRVTVLGHVQRGGTPSAFDRILGSRMGVEAVMALLEGTPDTPACVVSLSGNQAVRLPLMECVQVTKDVTKAMDEKKFDEALKLRGRSFMNNWEVYKLLAHVRPPVSKSGSHTVAVMNVGAPAAGMNAAVRSTVRIGLIQGNRVLVVHDGFEGLAKGQIEEAGWSYVGGWTGQGGSKLGTKRTLPKKSFEQISANITKFNIQGLVIIGGFEAYTGGLELMEGRKQFDELCIPFVVIPATVSNNVPGSDFSVGADTALNTICTTCDRIKQSAAGTKRRVFIIETMGGYCGYLATMAGLAAGADAAYIFEEPFTIRDLQANVEHLVQKMKTTVKRGLVLRNEKCNENYTTDFIFNLYSEEGKGIFDSRKNVLGHMQQGGSPTPFDRNFATKMGAKAMNWMSGKIKESYRNGRIFANTPDSGCVLGMRKRALVFQPVAELKDQTDFEHRIPKEQWWLKLRPILKILAKYEIDLDTSDHAHLEHITRKRSGEAAV
